Read-outs that look alike come from different tables or passages of the source.
B1: P043.A.00047.H08 (protein sample ID 447) (antibody, V domains shown)
VH: QSLEESGGDLVKPGASLTLTCTASGFSFSSDGMCWVRQAPGKGLEWIACIAAGSSGSTYYATWAQGRFTISKSSSTTVTLQMTSLTAADTATYFCAGEDYTGNNYYALWGPGTLVTVSS
VL: AIDMTQTPSPVSAVVGDTVTINCQASENIYSFLAWYQQKPGQPPKLLIYFASKLASGVPSRFKGSGSGTQFTLTISDVHSDDAAIYYCQQTGTYSDADNTFGGGTEVVVK
notes: also called antibody with the Protein sample ID 447
B2: P043.A.00095.D06 (protein sample ID 470) (antibody, V domains shown)
VH: QEQLEESGGDLVKPEGSLTLTCTASGFSFSSNYWICWVRQAPGKGLEWIGCIYIGSGDTYYASWAKGRFTISKTSSTTVTLQMTSLTAADTATYFCARSYTPGSYYNMNLWGPGTLVTVSS
VL: DVVMTQTPSSVSAAVGGTVTINCQASQQISNELSWYQQKSGQPPKLLIYDASDLASGVPSRFKGSGSGTEFTLTISDLESADAATYYCQSTGGASSDGNAFGGGTEVVVK
notes: also called S1 targeting antibody 470; anti-S1-antibody 470
B3: P043.A.00117.C08 (protein sample ID 469) (antibody, V domains shown)
VH: QSLEESGGGLVKPEGSLTLTCKASGFDLNTYYYMCWVRQAPGKGLEWIACIGTSDSGHTAYASWARGRFTISKTSSTTVTLQMTGLTAADTATYFCARGGRSVGDGVDLWGPGTLVTVSS
VL: DIVMTQTPASVEAAVGGTVTIKCQASQSISSWLAWYQQKPGQPPKLLIYDAFDLASGVPSRFKGSGSGTEFTLTISDLESADAATYYCQSYLYGESGSHGFGFGGGTEVVVR
B4: P043.A.00020.D06 (protein sample ID 444) (antibody, V domains shown)
VH: QSVEESGGRLVTPGTPLTLTCTVSGFSLSSYAMNWVRQAPGKGLEWIGIISSSGSTYYASWAKGRFTISKTSTTVDLKITSPTTEDTATYFCARVGAGYAGYGYDNYYGMDPWGPGTLVTVSS
VL: AIQMTQSPSSLAASVGDTVTITCKASEDIGYGLNWYQQKLGIAPKLLIYGANTLESGVPSRFSGSGSETDYTLTISSVQAEDAGIYYCQQGYSTPLTFGAGTKVEIK

Experiments:
[1] = biological target: T1, Human-Fc-tagged SARS-CoV2 S1 recombinant protein (Sino Biologicals) (SARS-CoV-2, UniProt P0DTC2 16-685); assay: ELISA on coated S1-hFc, 3 µg/ml; rabbit antibody in B-cell supernatant
T1 construct: domain: S1; Bought reagent

[2] = biological target: T2, Mouse-Fc-tagged SARS-CoV2 S1-RBD (Sino Biologicals) recombinant protein (SARS-CoV-2, UniProt P0DTC2 319-541); assay: ELISA on coated S1-RBD-mFc
T2 construct: domain: S1-RBD

[3] = biological target: T1, Human-Fc-tagged SARS-CoV2 S1 …
[4] = biological target: T2, Mouse-Fc-tagged SARS-CoV2 S1-RBD (Sino …); assay: competition ELISA: blocks S1-RBD-mFc binding to coated ACE-2 ECD
[5] = biological target: T2, Mouse-Fc-tagged SARS-CoV2 S1-RBD (Sino …); assay: SPR (Biacore T200), RBD-mFc captured via anti-mouse-Fc on CM5, 1:1 model
[6] = biological target: T3, His-tagged SARS-CoV S1-RBD (Sino Biologicals) (SARS-CoV, UniProt P59594 306-527); assay: ELISA, His-tagged SARS-CoV S1-RBD coated, anti-human Fc detection
T3 construct: domain: S1-RBD; Bought reagent

[7] = biological target: T2, Mouse-Fc-tagged SARS-CoV2 S1-RBD (Sino …); assay: SPR, S1-RBD-mFc captured via anti-mouse-Fc antibody, 1:1 model
[8] = biological target: T1, Human-Fc-tagged SARS-CoV2 S1 …; assay: ELISA on coated S1-hFc, 0.85 µg/ml; rabbit antibody in B-cell supernatant
[9] = biological target: T2, Mouse-Fc-tagged SARS-CoV2 S1-RBD (Sino …)
[10] = biological target: T3, His-tagged SARS-CoV S1-RBD (Sino …); assay: ELISA on coated His-tagged SARS-CoV S1-RBD [D00020 Figure 8A continued]
[11] = biological target: T2, Mouse-Fc-tagged SARS-CoV2 S1-RBD (Sino …); remark: listed apart in the source
[12] = biological target: T2, Mouse-Fc-tagged SARS-CoV2 S1-RBD (Sino …); assay: ELISA on coated S1-RBD-mFc; remark: listed apart in the source

Binder	EC50 [1]	EC50 [2]	IC50 [3]	IC50 [4]	koff [5]	EC50 [6]	Kd [7]	kon [7]	EC50 [8]	Kd [9]	binding result [10]	IC50 [11]	EC50 [12]	koff [7]
B1	0.0195 µg/mL	0.0096 µg/mL	0.0163 µg/mL	0.0299 µg/mL	6.72e-05 s⁻¹	0.0081 µg/mL	228 pM	296000 M⁻¹ s⁻¹						
B2		0.0086 µg/mL	0.0127 µg/mL	0.0196 µg/mL					0.0101 µg/mL	10.4 pM				
B3		0.0062 µg/mL	0.0142 µg/mL	0.0192 µg/mL		0.0885 µg/mL			0.0151 µg/mL					
B4	0.0057 µg/mL	0.0073 µg/mL	0.0072 µg/mL	0.0603 µg/mL			1360 pM	236000 M⁻¹ s⁻¹			no binding (tested: 1000 ng/ml)	0.0651 µg/mL	0.0082 µg/mL	0.00032 s⁻¹

From US20230287088A1 (BIONTECH, published 2023)
